According to US8357523B2, “Beta-glucosidase variant enzymes and related polynucleotides” (Codexis, Inc., priority 2009, dated 2013):

B1: CelA wildtype: wildtype Azospirillum irakense β-glucosidase (CelA) (SEQ ID NO: 4) (protein)
chain: STAIAQEGAAPAAILHPEKWPRPATQRLIDPAVEKRVDALLKQLSVEEKVGQVIQGDIGTITPEDLRKYPLGSILAGGNSGPNGDDRAPPKEWLDLADAFYRVSLEKRPGHTPIPVLFGIDAVHGHGNIGSATIFPHNIALGATHDPELLRRIGEVTAVEMAATGIDWTFAPALSVVRDDRWGRTYEGFSEDPEIVAAYSAAIVEGVQGKFGSKDFMAPGRIVASAKHFLADGGTDQGRDQGDARISEDELIRIHNAGYPPAIDAGVLTVMASFSSWQGIKHHGHKQLLTDVLKGQMGFNGFIVGDWNAHDQVPGCTKFNCPTSLIAGLDMYMAADSWKQLYENTLAQVKDGTIPMARLDDAVRRILRVKVLAGLFEKPAPKDRPGLPGLETLGSPEHRAVGREAVRKSLVLLKNDKGTLPLSPKARVLVAGDGADNIGKQSGGWTISWQGTGNRNDEFPGATSILGGIRDAVADAGGSVEFDVAGQYKTKPDVAIVVFGEEPYAEFQGDVETLEYQPDQKQDLALLKKLKDQGIPVVAVFLSGRPMWVNPELNASDAFVAAWLPGTEGGGVADVLFTDKAGKVQHDFAGKLSYSWPRTAAQTTVNRGDADYNPLFAYGYGLTYKDKSKVGTLPEESGVPAEARQNAGIYFRAGALRLPGRFL
B2: T2A + A5T + I14M + N79D + G127N + A143M + H145R + V159E + A198S + A207F + F211Y + I222A + S225C + Q508R + A3R + S73A + V177P + I2037-des[A647-L663] (protein)
chain: SARITQEGAAPAAMLHPEKWPRPATQRLIDPAVEKRVDALLKQLSVEEKVGQVIQGDIGTITPEDLRKYPLGAILAGGDSGPNGDDRAPPKEWLDLADAFYRVSLEKRPGHTPIPVLFGIDAVHGHNNIGSATIFPHNIALGMTRDPELLRRIGEVTAEEMAATGIDWTFAPALSVPRDDRWGRTYEGFSEDPEIVASYSAAYVEGFQGKYGSKDFMAPGRAVACAKHFLADGGTDQGRDQGDARISEDELIRIHNAGYPPAIDAGVLTVMASFSSWQGIKHHGHKQLLTDVLKGQMGFNGFIVGDWNAHDQVPGCTKFNCPTSLIAGLDMYMAADSWKQLYENTLAQVKDGTIPMARLDDAVRRILRVKVLAGLFEKPAPKDRPGLPGLETLGSPEHRAVGREAVRKSLVLLKNDKGTLPLSPKARVLVAGDGADNIGKQSGGWTISWQGTGNRNDEFPGATSILGGIRDAVADAGGSVEFDVAGQYKTKPDVAIVVFGEEPYAEFRGDVETLEYQPDQKQDLTLLKKLKDQGIPVVAVFLSGRPMWVNPELNASDAFVAAWLPGTEGGGVADVLFTDKAGKVQHDFAGKLSYSWPRTAAQTTVNRGDADYNPLFAYGYGLTYKDKSKVGTLPEESGVPAEARQN

Tests used:
Format in all cases: biochemical
[1] = pNPG (p-nitrophenyl-β-D-glucopyranoside) assay of β-glucosidase activity; details: media supernatant of shake flask culture
Description: A single microbial colony of Bacillus megaterium containing the vector prepared in Example 1 with the CelA gene was inoculated into 3 ml Luria-Bertani (LB) Broth ([…]) containing 10 μg/mL tetracycline. Cells were grown overnight (at least 16 hrs) in an incubator at 37° C. with shaking at 250 rpm. […]
A colorimetric pNPG (p-nitrophenyl-(β-D-glucopyranoside)-based assay was used for measuring β-glucosidase activity. In a total volume of 100 μL, 20 μL clear media supernatant containing β-glucosidase enzyme was added to 4 mM pNPG (Sigma-Aldrich, Inc. St. Louis, Mo.) solution in 50 mM sodium phosphate buffer at pH6.5. The reactions were incubated at pH 6.5, 45° C. for 1 hour. The reaction mixture was quenched with 100 μL of 1M sodium carbonate pH 11 solution. The absorbance of the solution was measured at 405 nm to determine the conversion of pNPG to p-nitrophenol. The release of p-nitrophenol (ε=17,700 M−1 cm−1) was measured at 405 nm to calculate β-glucosidase activity. […]

[2] = Activity profile at different temperatures and pH using cellobiose (10 g/L) as substrate
[3] = Enzyme stability: residual activity on pNPG after pre-incubation at high temperature and low pH; details: residual activity on pNPG at pH 7, 30° C.
Description: Residual activity is determined by exposing the enzyme to stress conditions of elevated temperature for a period of time and then determining the β-glucosidase activity. The β-glucosidase activity of the enzyme exposed to stress conditions (“a”) is compared to that of a control in which the enzyme is not exposed to the stress conditions (“b”), and residual activity is equal to the ratio a/b. Exemplary conditions for determining thermostability are provided in Examples 9 and 13. In one embodiment the enzymes are exposed to stress conditions of 50° C. at pH 5.5 or 55° C. at pH 5.0 or 55° C. at pH 5.5, or 65° C. at pH 5.0 for about 1 hour, and assayed at 30° C., pH 7, for about 0.1 hour.
A colorimetric pNPG (p-nitrophenyl-(β-D-glucopyranoside)-based assay was used for measuring β-glucosidase activity. In a total volume of 100 μL, 20 μL clear media supernatant containing β-glucosidase enzyme was added to 4 mM pNPG (Sigma-Aldrich, Inc. St. Louis, Mo.) solution in 50 mM sodium phosphate buffer at pH6.5. The reactions were incubated at pH 6.5, 45° C. for 1 hour. The reaction mixture was quenched with 100 μL of 1M sodium carbonate pH 11 solution. The absorbance of the solution was measured at 405 nm to determine the conversion of pNPG to p-nitrophenol. The release of p-nitrophenol (ε=17,700 M−1 cm−1) was measured at 405 nm to calculate β-glucosidase activity. Detectable β-glucosidase activity was observed under high throughput screening conditions (pH 7, 50° C.).
Four CelA variants and wildtype CelA were characterized to determine their stabilities at high temperature (55° C.) and low pH (pH5.5) using the method of Example 5A. The samples containing various CelA variant enzymes were pre-incubated at pH 5.5, 55° C. for 0-6 hrs. The residual enzyme activity after the thermal challenge was measured using pNPG as substrate at pH 7, 30° C. for 1 hr. […] The mutations listed in the table are indicated relative to SEQ ID NO: 4, the wildtype CelA. These sequences included residues GTS prior to the N-terminus of SEQ ID NO: 4 (prepared as described in Example 1). […]

[4] = Activity profile at different temperatures and pH using cellobiose (10 g/L) as substrate; remark: listed apart in the source
Description: β-glucosidase activity was also determined using a cellobiose assay, which used cellobiose as substrate. In a total volume of 100 μL, 25 μL clear media supernatant containing CelA enzyme was added to 10 g/L cellobiose (Fluka Cat. No. 22150, Sigma-Aldrich, Inc., St. Louis, Mo.) in 100 mM sodium phosphate buffer (pH 6-7) or sodium acetate buffer (pH 5-5.5). The reaction was incubated at 45-70° C. for an appropriate time (25 minutes to overnight depending on the enzyme concentration) while shaking. Glucose production was determined using an enzymatic glucose assay (K-GLUC, Megazyme, Ireland). 10 μl of each reaction was added to 190 μl GOPOD reagent (supplied as part of the K-GLUC assay kit). The reaction was incubated at 45° C. for 20 minutes and the absorbance of the solution was measured at 510 nm. The GOPOD reagent contains 50 mM Potassium phosphate buffer pH7.4, 0.011M p-hydroxybenzoic acid, 0.008% w/v sodium azide, glucose oxidase (>12,000 U/L), peroxidase (>650 U/L) and 80 mg/L 4-aminoantipyrine. The glucose oxidase enzyme in the reagent reacts with any glucose present in the sample and produces hydrogen peroxide which then reacts with the 4-aminoantipyrine to produce a quinoneimine dye in quantities proportionate with the amount of glucose present and can be measured spectrophotometrically at 510 nm. Detectable β-glucosidase activity was observed under high throughput screening conditions (i.e., pH 7, 50° C.).
The native CelA activity profile was investigated at different temperatures (40-55° C.) and pH (5.0-8.0) using cellobiose (10 g/L) as a substrate. The experimental and analytical procedures are described in Example 5.
The activity profiles for Variant Nos. 264, 366, 391, 463, and 529 were determined at different temperatures and pH using cellobiose (10 g/L) as a substrate. The experimental and analytical procedures are described in Example 5, incubating the variant with cellobiose at temperatures in the range of 45-80. The results are depicted in FIGS. 7-11. […] The temperature and pH profile for this variant is depicted in FIG. 7. […] The temperature and pH profile for this variant is depicted in FIG. 8. […] The temperature and pH profile for this variant is depicted in FIG. 9. […] (with the pH 6 optimum determined by extrapolation). The temperature and pH profile for this variant is depicted in FIG. 10. […] The temperature and pH profile for this variant is depicted in FIG. 11.

[5] = Glucose inhibition (glucose tolerance), cellobiose assay with cellobiose consumption determined by HPLC; details: pH 5, 55° C.; glucose concentration at which enzyme activity is 50% of the activity with no glucose

Molecule	activity using pNPG as substrate [1]	CelA activity at pH 4 and 70° C. [2]	% residual activity after 10 mins @ pH 5.5, 55° C. ([3]; pre-incubation 10 mins at pH 5.5, 55° C., 1 hr) [%]	% residual activity after 1 hour @ pH 5.5, 55° C. ([3]; pre-incubation 1 hour at pH 5.5, 55° C.) [%]	% residual activity after 6 hours @ pH 5.5, 55° C. ([3]; pre-incubation 6 hours at pH 5.5, 55° C., 1 hr) [%]	pH of optimum activity [4] [pH]	temperature of optimum activity [4] [°C]	IC50 for glucose [5]
B1	confirmed	detectable	0	0	0	6.0	47	
B2								greater than 100 g/l
